The results in this text go back to the supplement of paper PMC9942255.

The subject of this data set is Bacillus subtilis DB104 (SP-AmyQ fusion secretion). Nature of the data set: AmyQ secretion efficiency, weighted average sort bin (1 = best secretion, 10 = worst) (bin number (weighted average, 1-10)); higher = lower secretion efficiency. A digest of the protocol: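 In this assay, the secretion score is defined as the average bin number weighted by read frequency, normalised to beads per bin, with low-abundance sequences not counted. B. subtilis DB104 cells expressing mature AmyQ behind designed signal peptides (amyE-integrated) were enclosed with fluorescein-starch in ~65 nL alginate beads at about 0.3 cells per bead. Beads grew about 13 h at room temperature, were stained with nile red, and occupied beads went into 10 equally populated green/red fluorescence ratio bins by large-particle flow cytometry, whose amplicons were Illumina-sequenced.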

“And” between values parts separate entries of the source, which are not always exact repeats. Equal entries are not always repeated.

Turning to MTMLRKIIGWILLLCIIKKRRRRVIASGKEV, the AmyQ secretion efficiency is 7.19. In turn, MTMLRKIIGWILLLCIIPEFAFTVIASGKEV gave an AmyQ secretion efficiency of 5.32.

MTMLRKIIGWILLLCIIPLFAFTVIASAKEV yielded an AmyQ secretion efficiency of 4.98. Under MTMLRKIIGWILLLCIIPLFAFTVIASCKEV stands 8.74. In turn, MTMLRKIIGWILLLCIIPLFAFTVIASDKEV gave an AmyQ secretion efficiency of 7.16. Under MTMLRKIIGWILLLCIIPLFAFTVIASFKEV stands 6.97; under MTMLRKIIGWILLLCIIPLFAFTVIASGAED, 6.01. Under MTMLRKIIGWILLLCIIPLFAFTVIASGAPV stands 6.61; under MTMLRKIIGWILLLCIIPLFAFTVIASGASK, 7.69; under MTMLRKIIGWILLLCIIPLFAFTVIASGATD, 6.31. With MTMLRKIIGWILLLCIIPLFAFTVIASLKEV the figure was 3.47; with MTMLRKIIGWILLLCIIPLFAFTVIASNKEV, 5.99; with MTMLRKIIGWILLLCIIPLFAFTVIASPKEV, 7.22. In turn, MTMLRKIIGWILLLCIIPLFAFTVIASQKEV showed an AmyQ secretion efficiency of 6.87. Regarding MTMLRKIIGWILLLCIIPLFAFTVIASRKEV, the AmyQ secretion efficiency was 6.1.

Sequence MTMLRKIIGWILLLCIIPLFAFTVIASSKEV came in with an AmyQ secretion efficiency of 6.98. Regarding MTMLRKIIGWILLLCIIPLFAFTVIASTKEV, the AmyQ secretion efficiency stood at 7.17. Under MTMLRKIIGWILLLCIIPLFAFTVIASVKEV stands 7.89; under MTMLRKIIGWILLLCIIPLFAFTVIASWKEV, 5.23; under MTMLRKIIGWILLLCIIPLFAFTVIASYKEV, 6.87. As for MTMLRKIIGWILLLCIIPLFAFTVICSGKEV, the AmyQ secretion efficiency worked out at 7.14. With MTMLRKIIGWILLLCIIPLFAFTVIDSGKEV, the AmyQ secretion efficiency is 6.22.

MTMLRKIIGWILLLCIIPLFAFTVIESGKEV returned an AmyQ secretion efficiency of 6.44. For MTMLRKIIGWILLLCIIPLFAFTVIGSGKEV, the AmyQ secretion efficiency is 6.78.

In the case of MTMLRKIIGWILLLCIIPLFAFTVIHSGKEV, the AmyQ secretion efficiency came to 6.94.

The sequence MTMLRKIIGWILLLCIIPLFAFTVIISGKEV returned an AmyQ secretion efficiency of 5.66. MTMLRKIIGWILLLCIIPLFAFTVIMSGKEV had an AmyQ secretion efficiency of 7.42.

MTMLRKIIGWILLLCIIPLFAFTVINSGKEV: the AmyQ secretion efficiency is 6.45. For the sequence MTMLRKIIGWILLLCIIPLFAFTVIPSGKEV, the AmyQ secretion efficiency is 8.07. The sequence MTMLRKIIGWILLLCIIPLFAFTVIPVVTVASGKEV displayed an AmyQ secretion efficiency of 4.51. Under MTMLRKIIGWILLLCIIPLFAFTVIQSGKEV stands 6.03; under MTMLRKIIGWILLLCIIPLFAFTVIRSGKEV, 7.52. MTMLRKIIGWILLLCIIPLFAFTVISSGKEV registered an AmyQ secretion efficiency of 6.13.

Consider MTMLRKIIGWILLLCIIPLFAFTVITSGKEV, for which the AmyQ secretion efficiency came out at 6.41. With MTMLRKIIGWILLLCIIPLFAFTVIVSGKEV the figure was 5.52; with MTMLRKIIGWILLLCIIPSKQQSSIASGKEV, 6.84. In the case of “MTMLRKIIGWILLLCIIVSVAATITLIPLFAFTVIASGKEV”, the AmyQ secretion efficiency was determined as 4.26.

MTMLRKIIGWILLLCPLFAFTVIASGKEV: the AmyQ secretion efficiency came out at 8.01.

In turn, MTMLRKIRKWILLLCIIPLFAFTVIASGKEV displayed an AmyQ secretion efficiency of 6.76. In the case of MTMLRKIRRKKLLLCIIPLFAFTVIASGKEV, the AmyQ secretion efficiency amounted to 6.88. In the case of MTMLRKIRRKRKRLCIIPLFAFTVIASGKEV, the AmyQ secretion efficiency is 6.99. In turn, MTMLRKKGRWSLLLCIIPLFAFTVIASGKEV gave an AmyQ secretion efficiency of 6.17. As for MTMLRKKTGWILLLCIIPLFAFTVIASGKEV, the AmyQ secretion efficiency was determined as 3.88. With MTMLRKNMSIIGWILLLCIIPLFAFTVIASGKEV the figure was 5.45; with MTMLSMIIGWILLLCIIPLFAFTVIASGKEV, 7.31; with MTMSSGMSSILAVSVLLLLSRLPVQASLTSE, 4.1.

In turn, MTQFAITLSVLCALILLVPTLLVIPFQHNKEAGASV came in with an AmyQ secretion efficiency of 7.59. Under MTRFILVLSFLSIIVAYPIQTNASPM stands 5.75; under MTRLLSTLLIGIMLLTFAPSAFAKQD, 1.6; under MTRTGAIIAAVIVIAALITFNVRNASPG, 7.74. MTSAFILSAAAAVGLFTFGGVQQASAKEL gave an AmyQ secretion efficiency of 2.86. The sequence MTSGTFIIWTIILGALLVCCIAVAYTLTKSQAGASSS showed an AmyQ secretion efficiency of 4.88. In turn, MTSGTLWISLLFALTLIFTMAFSNMSAQAAGK gave an AmyQ secretion efficiency of 2.62. Take MTSLMMLSMLTVMIASLFIFSSQALAVQY: the AmyQ secretion efficiency was 3.98. Take MTSSGFTVFLILLLMLTLVVAPKEKAEAASS: the AmyQ secretion efficiency was 1.98. Under MTSSGGMFIVFICFFVLFSVHPIAAAAADS stands 6.41. As to MTSSLIGFLVLVPALIMSGITLIEANKK, the AmyQ secretion efficiency was determined as 3.95. With MTTAAAVLLSLGLVFGFSYGAGHVAEAKTK the figure was 2.82; with MTTGLLASLVLCLSLSPLVSTNEVFAATT, 4.99.

With MTTKFKKKRRFLLCFMPAAKIEHTQASLL, the AmyQ secretion efficiency stood at 7.76. Under MTTKFTALAVFLKEHTQASLL stands 6.23; under MTTKFTALAVFLLCFMPAAKIEHTQASLL, 4.17; under MTTKFTALAVFLLCFMPAAKIKRKHTQASLL, 7.32. Under MTTKFTALAVFLLCFMPAAVIEHTQASLL stands 5.46; under MTTKYSKQSKQLLCFMPAAKIEHTQASLL, 7.85; under MTTTAWFLPLVCVLLISGWLAPAASASAQTT, 2.09. Regarding MTTTIAWFLPLVCVLLISGWLAPAASASAQTT, the AmyQ secretion efficiency was determined as 2.38. With MTTTSIFVITCVMAASLTLGSLLPAGYASAKED the figure was 3.58. Regarding MTTWIVLFLVLIAAAISIFVYVSTGSEK, the AmyQ secretion efficiency stood at 8.09. Under MTVPITMLLSTAAGLLLSLTATSVSAHYV stands 6.06; under MTVPKTMLLSTAAGLLLSLTATSVSAHYV, 6.58; under MVKKWLIMFAVMLGVLMTFTYSASAVGV, 1.93.

The sequence MVKKWLIQFAVMLSVLSKKRRKKASAVGV registered an AmyQ secretion efficiency of 7.67. Under MVKKWLIQFAVMLSVLSTFTYSASAVGV stands 3.04 and 1.99; under MVKKWLIQFAVMLSVLSTFTYSASIVGV, 8.01; under MVKKWLRRRRVMLSVLSTFTYSASAVGV, 6.88. For the sequence MVKKWYYQSKSSLSVLSTFTYSASAVGV, the AmyQ secretion efficiency turned out to be 5.88.

Sequence MYGKIALTLCPAIVGSLLFFTAPASAHVS gave an AmyQ secretion efficiency of 2.26. The sequence MYKGWLIQFAVMLSVLSTFTYSASAVGV showed an AmyQ secretion efficiency of 5.73. Under MYKKFVPFAVFLFLFFVSFEMMENCHALDY stands 7.9; under MYKKFVPFAVFLFLFFVSFEMMENPHALDY, 7.08. With MYKKFVPFAVFLFLFFVSFRKMRNPHALDY the figure was 6.42. Under MYKKFVPFRRRKKRFFVSFEMMENPHALDY stands 7.64; under MYKKFVPRTQYSRLFFVSFEMMENPHALDY, 7.24; under MYKKFVPTYTKYFLFFVSFEMMENPHALDY, 6.52. The sequence MYNRKRRVCFLAALIMAFTLPNSVYAQKP yielded an AmyQ secretion efficiency of 2.73.

In turn, MYSAIIIAIIAAVIVIAALITFNVRNASPG showed an AmyQ secretion efficiency of 7.59.

In turn, MYSKGLLAGALTATVLFGTCAVDVPGIISPKTAEAASQ gave an AmyQ secretion efficiency of 2.38.
